In IntAct's records for PubMed 16951355:

B1: ICOS ligand (Homo sapiens), O75144 (parent)
chain: MRLGSPGLLFLLFSSLRADTQEKEVRAMVGSDVELSCACPEGSRFDLNDVYVYWQTSESKTVVTYHIPQNSSLENVDSRYRNRALMSPAGMLRGDFSLRLFNVTPQDEQKFHCLVLSQSLGFQEVLSVEVTLHVAANFSVPVVSAPHSPSQDELTFTCTSINGYPRPNVYWINKTDNSLLDQALQNDTVFLNMRGLYDVVSVLRIARTPSVNIGCCIENVLLQQNLTVGSQTGNDIGERDKITENPVSTGEKNAATWSILAVLCLLVVVAVAIGWVCRDRCLQHSYAGAWAVSPETELTGHV

Variants of: B1
Conditions: with icos_human ICOS

| Variant | effect of a mutation on the interaction |
| --- | --- |
| V62A | decreasing interaction strength |
| D77A | with no effect |
| N70Q | with no effect |
| Q55A;V62A | disrupting interaction strength |
| Q55A | decreasing interaction strength |
| Y53F | disrupting interaction strength |
| Y53A | disrupting interaction strength |
| T61A | with no effect |
| L47A | with no effect |
| T64A | with no effect |
| S59A | with no effect |
| H66A | decreasing interaction strength |
| V76A | decreasing interaction strength |
| Y51A | disrupting interaction strength |
| Y51F | decreasing interaction strength |

Next, values leading:

| effect of a mutation on the interaction | Variant |
| --- | --- |
| with no effect | S87A |
| disrupting interaction strength | Y80A |
| with no effect | V143A |
| with no effect | N137Q |
| decreasing interaction strength | E124A |
| decreasing interaction strength | L120A |
| with no effect | G195A |
| decreasing interaction strength | N102Q |
| with no effect | F138A |
| with no effect | N186Q |
| with no effect | G121A |
| with no effect | L196A |
| disrupting interaction strength | F122A |
| with no effect | P141A |
| with no effect | N225Q |
| decreasing interaction strength | L114A |
| with no effect | Q123A |
| with no effect | L98A |
